# From publication PMC2132493
# Target: mXRN1p (Mus musculus (mouse; testis BALB/c and …, UniProt P97789 1-1719)
# Assay: EMSA
# mXRN1p (Mus musculus, sequence (P97789 whole entry): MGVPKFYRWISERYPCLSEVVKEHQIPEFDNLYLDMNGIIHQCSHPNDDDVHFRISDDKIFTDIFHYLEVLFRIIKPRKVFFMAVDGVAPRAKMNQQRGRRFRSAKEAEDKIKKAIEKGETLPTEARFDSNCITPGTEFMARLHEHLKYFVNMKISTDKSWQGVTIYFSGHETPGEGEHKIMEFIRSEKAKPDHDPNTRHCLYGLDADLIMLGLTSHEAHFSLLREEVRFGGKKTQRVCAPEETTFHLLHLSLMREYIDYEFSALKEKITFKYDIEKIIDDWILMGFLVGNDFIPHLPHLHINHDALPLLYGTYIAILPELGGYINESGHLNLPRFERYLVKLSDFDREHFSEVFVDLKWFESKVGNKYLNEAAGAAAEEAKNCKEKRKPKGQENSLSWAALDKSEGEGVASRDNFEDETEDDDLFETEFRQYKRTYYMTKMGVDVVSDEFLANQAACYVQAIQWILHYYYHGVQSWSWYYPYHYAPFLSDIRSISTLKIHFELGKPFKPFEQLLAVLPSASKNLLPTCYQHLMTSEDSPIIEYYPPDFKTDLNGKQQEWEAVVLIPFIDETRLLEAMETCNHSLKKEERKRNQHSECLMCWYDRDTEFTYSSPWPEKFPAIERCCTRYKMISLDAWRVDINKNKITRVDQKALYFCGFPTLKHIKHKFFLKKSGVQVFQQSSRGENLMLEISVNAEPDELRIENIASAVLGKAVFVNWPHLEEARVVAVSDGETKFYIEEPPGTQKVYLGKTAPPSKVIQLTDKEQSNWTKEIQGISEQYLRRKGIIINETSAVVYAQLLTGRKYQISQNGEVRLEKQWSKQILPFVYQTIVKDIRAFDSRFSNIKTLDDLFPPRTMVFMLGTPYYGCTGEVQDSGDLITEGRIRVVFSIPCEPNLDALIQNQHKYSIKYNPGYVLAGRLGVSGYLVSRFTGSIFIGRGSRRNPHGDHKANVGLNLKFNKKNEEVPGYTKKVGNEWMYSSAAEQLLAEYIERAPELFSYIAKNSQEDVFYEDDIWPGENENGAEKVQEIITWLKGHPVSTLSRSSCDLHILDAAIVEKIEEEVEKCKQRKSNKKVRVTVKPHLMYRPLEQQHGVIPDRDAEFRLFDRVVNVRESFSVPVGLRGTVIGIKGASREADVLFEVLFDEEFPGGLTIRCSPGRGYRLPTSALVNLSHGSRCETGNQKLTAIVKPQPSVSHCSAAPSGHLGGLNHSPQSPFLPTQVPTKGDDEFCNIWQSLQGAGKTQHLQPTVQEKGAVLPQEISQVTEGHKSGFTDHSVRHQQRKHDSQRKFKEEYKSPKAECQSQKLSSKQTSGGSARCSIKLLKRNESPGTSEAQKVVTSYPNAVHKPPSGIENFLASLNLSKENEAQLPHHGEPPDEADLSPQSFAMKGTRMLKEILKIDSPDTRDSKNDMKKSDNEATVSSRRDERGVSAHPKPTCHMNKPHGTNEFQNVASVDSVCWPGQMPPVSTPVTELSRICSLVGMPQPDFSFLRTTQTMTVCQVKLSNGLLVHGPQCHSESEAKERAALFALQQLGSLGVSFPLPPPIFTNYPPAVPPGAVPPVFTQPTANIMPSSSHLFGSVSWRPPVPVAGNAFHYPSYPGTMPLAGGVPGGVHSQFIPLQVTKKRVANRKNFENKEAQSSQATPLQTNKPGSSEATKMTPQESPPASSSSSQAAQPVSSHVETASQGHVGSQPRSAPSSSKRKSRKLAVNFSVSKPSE
row,Binder,Ka [M⁻¹]
1,UAUGGGGGAGCUGGGGAAGGUGGGAUUU (structured_RNA) [rGL[G4]],2.95e+10
2,TATGGGGGAGCTGGGGAAGGTGGGATTT (structured_DNA) [GL[G4]],1.26e+10
